Legend:
[1] = biological target: BG505 SOSIP.664 soluble HIV-1 Env trimer (HIV-1 (strain BG505)) (UniProt Q2N0S6); experiment: negative-stain single-particle EM
[2] = biological target: BG505 SOSIP.664 soluble HIV-1 Env trimer (HIV-1 (strain BG505)) (UniProt Q2N0S6); experiment: cryo-EM structure
[3] = biological target: BG505 SOSIP-sCD4 complex (HIV-1 (strain BG505) | human) (UniProt Q2N0S6); experiment: negative-stain single-particle EM
[4] = biological target: BG505 SOSIP-sCD4 complex (HIV-1 (strain BG505) | human) (UniProt Q2N0S6); experiment: cryo-EM structure

**Q.** For “sCD4 (CD4 domains 1 and 2) (domain or fragment)”, which stoichiometry N (copies per trimer) [1] is on record?
**A.** 3

**Q.** And the stoichiometry N (sCD4 per trimer) [2]?
**A.** 3

**Q.** 17b Fab (CD4-induced antibody) was tested. Which stoichiometry N (copies per trimer) [3] did it give?
**A.** 3

**Q.** What about the stoichiometry N (Fabs per trimer) [4] of the same substance?
**A.** 3

Reference: paper PMC4587768
